Reference: US20150274820A1 (ESBATECH AN ALCON BIOMEDICAL RESEARCH UNIT, published 2015)
Positions count from the first letter of the chain named. “And” between values parts separate entries of the source, which are not always exact repeats. Equal entries are not always repeated. One block for each binder: values may come before it.

Key:
[1] = molecular target: recombinant rat VEGF164 (rat) (UniProt P16612); assay: Biacore SPR, pH 7.4 (data not shown)
[2] = molecular target: recombinant murine VEGF164 (mouse) (UniProt Q00731); assay: Biacore SPR, pH 7.4 (data not shown)
[3] = molecular target: T1, recombinant human VEGF165 (human, UniProt P15692 27-191); assay: cell-based or functional assay
[4] = molecular target: recombinant rat VEGF164 (rat) (UniProt P16612); assay: Biacore SPR, VEGF immobilized, pH 5
[5] = molecular target: recombinant murine VEGF164 (mouse) (UniProt Q00731); assay: Biacore SPR, VEGF immobilized, pH 5
[6] = molecular target: recombinant rat VEGF164 (rat) (UniProt P16612); assay: cell-based or functional assay
[7] = molecular target: recombinant murine VEGF164 (mouse) (UniProt Q00731); assay: cell-based or functional assay
[8] = molecular target: recombinant murine VEGF164 (mouse) (UniProt Q00731); assay: Biacore SPR, pH 5 (text; Table 8b prints 5.67E-10)
[9] = molecular target: T1, recombinant human VEGF165; assay: cell-based or functional assay; remark: listed apart in the source
[10] = molecular target: T1, recombinant human VEGF165; assay: Biacore SPR, VEGF immobilized, pH 5
Experimental: In this example, the Biacore-binding ability of scFvs was tested and the binding affinity was measured using the exemplary surface plasmon resonance method with BIAcore™-T100. The VEGF proteins, tested for binding by these scFv candidates, in this example and later examples include purified Escherichia coli-expressed recombinant human VEGF₁₆₅ (PeproTech EC Ltd.), recombinant human VEGF₁₂₁ (PeproTech EC Ltd.), recombinant human VEGF₁₁₀ (ESBATech AG), recombinant murine VEGF₁₆₄ (PeproTech EC Ltd.), recombinant rat VEGF₁₆₄ (Biovision), recombinant rabbit VEGF₁₁₀ (ESBATech AG), and recombinant human PLGF (PeproTech EC Ltd.). For the surface plasmon resonance experiment, carboxymethylated dextran biosensor chips (CM4, GE Healthcare) were activated with N-ethyl-N′-(3-dimethylaminopropyl) carbodiimide hydrochloride and N-hydroxysuccinimide according to the supplier's instructions. Each of the 6 different VEGF forms, as exemplified above, was coupled to 1 of the 4 different flow cells on a CM4 sensor chip using a standard amine-coupling procedure. […] The 4th flow cell of each chip was treated similarly except no proteins were immobilized prior to blocking, and the flow cell was used as in-line reference. […] Dissociation of the anti-VEGF scFv from the VEGF on the CM4 chip was allowed to proceed for 10 min at 25° C. Sensorgrams were generated for each anti-VEGF scFv sample after in-line reference cell correction followed by buffer sample subtraction. The apparent dissociation rate constant (kd), the apparent association rate constant (kₐ) and the apparent dissociation equilibrium constant (KD) were calculated using one-to-one Langmuir binding model with BIAcore T100 evaluation Software version 1.1. […]
Target sequence in this assay (P15692 other isoform, or with tags, fused parts or gaps): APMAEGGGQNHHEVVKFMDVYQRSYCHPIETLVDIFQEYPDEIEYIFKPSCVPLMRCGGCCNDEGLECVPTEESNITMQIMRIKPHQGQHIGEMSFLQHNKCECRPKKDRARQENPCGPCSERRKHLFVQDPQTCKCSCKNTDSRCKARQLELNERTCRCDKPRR

[11] = molecular target: recombinant rat VEGF164 (rat) (UniProt P16612); assay: Biacore SPR; ratio to hVEGF165
[12] = molecular target: recombinant murine VEGF164 (mouse) (UniProt Q00731); assay: Biacore SPR; ratio to hVEGF165
recombinant human PLGF = molecular target: T2, recombinant human PLGF (human, UniProt P49763-2 19-149, limits assumed); assay: Biacore SPR, PlGF immobilized, pH 5
T2 construct: Negative control; also called PIGF
T2 sequence (looked up): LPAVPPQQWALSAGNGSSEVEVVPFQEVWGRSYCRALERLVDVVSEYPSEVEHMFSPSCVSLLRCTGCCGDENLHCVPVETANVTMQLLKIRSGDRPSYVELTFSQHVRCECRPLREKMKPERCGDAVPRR
Experimental: (§1) In this example, the Biacore-binding ability of scFvs was tested and the binding affinity was measured using the exemplary surface plasmon resonance method with BIAcore™-T100. The VEGF proteins, tested for binding by these scFv candidates, in this example and later examples include purified Escherichia coli-expressed recombinant human VEGF₁₆₅ (PeproTech EC Ltd.), recombinant human VEGF₁₂₁ (PeproTech EC Ltd.), recombinant human VEGF₁₁₀ (ESBATech AG), recombinant murine VEGF₁₆₄ (PeproTech EC Ltd.), recombinant rat VEGF₁₆₄ (Biovision), recombinant rabbit VEGF₁₁₀ (ESBATech AG), and recombinant human PLGF (PeproTech EC Ltd.). For the surface plasmon resonance experiment, carboxymethylated dextran biosensor chips (CM4, GE Healthcare) were activated with N-ethyl-N′-(3-dimethylaminopropyl) carbodiimide hydrochloride and N-hydroxysuccinimide according to the supplier's instructions. Each of the 6 different VEGF forms, as exemplified above, was coupled to 1 of the 4 different flow cells on a CM4 sensor chip using a standard amine-coupling procedure. […] The 4th flow cell of each chip was treated similarly except no proteins were immobilized prior to blocking, and the flow cell was used as in-line reference. […] Dissociation of the anti-VEGF scFv from the VEGF on the CM4 chip was allowed to proceed for 10 min at 25° C. Sensorgrams were generated for each anti-VEGF scFv sample after in-line reference cell correction followed by buffer sample subtraction. The apparent dissociation rate constant (kd), the apparent association rate constant (kₐ) and the apparent dissociation equilibrium constant (KD) were calculated using one-to-one Langmuir binding model with BIAcore T100 evaluation Software version 1.1.

[13] = molecular target: T1, recombinant human VEGF165; assay: Biacore SPR, VEGF immobilized, pH 7.4
Experimental: as §1
Target sequence in this assay (P15692 other isoform, or with tags, fused parts or gaps): as the sequence (P15692 other isoform, or with tags, fused parts or gaps) above

[14] = molecular target: T1, recombinant human VEGF165; assay: cell-based or functional assay; remark: listed apart in the source
Target sequence in this assay (P15692 other isoform, or with tags, fused parts or gaps): as the sequence (P15692 other isoform, or with tags, fused parts or gaps) above

[15] = molecular target: T3, recombinant human VEGF110 (human, UniProt P15692-4 27-136, limits assumed); assay: Biacore SPR, VEGF immobilized, pH 5
T3 construct: Made in house; also called hVEGF110
T3 sequence (looked up): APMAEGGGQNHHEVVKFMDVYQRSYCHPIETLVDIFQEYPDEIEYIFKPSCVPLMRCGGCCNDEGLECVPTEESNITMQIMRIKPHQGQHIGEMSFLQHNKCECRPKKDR
Experimental: as §1

[16] = molecular target: T4, recombinant human VEGF121 (human, UniProt P15692 27-147); assay: Biacore SPR, VEGF immobilized, pH 5
T4 construct: mature; Isoform VEGF121 of the entry; also called hVEGF121
T4 sequence (looked up): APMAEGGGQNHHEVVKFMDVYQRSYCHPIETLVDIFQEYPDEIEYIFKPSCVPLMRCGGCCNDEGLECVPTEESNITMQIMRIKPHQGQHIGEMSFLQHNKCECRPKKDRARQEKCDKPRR
Experimental: as §1

[17] = molecular target: T1, recombinant human VEGF165; assay: Biacore SPR, VEGF immobilized, pH 5; remark: listed apart in the source
Experimental: as §1
Target sequence in this assay (P15692 other isoform, or with tags, fused parts or gaps): as the sequence (P15692 other isoform, or with tags, fused parts or gaps) above

[18] = molecular target: T1, recombinant human VEGF165; assay: Biacore SPR, VEGF immobilized, pH 5; remark: listed apart in the source
Experimental: as §1
Target sequence in this assay (P15692 other isoform, or with tags, fused parts or gaps): as the sequence (P15692 other isoform, or with tags, fused parts or gaps) above

[19] = molecular target: T1, recombinant human VEGF165; assay: VEGFR1/Fc competition ELISA on coated hVEGF165; ratio to Lucentis
Experimental: After 30-60 min of incubation at room temperature, the mixtures were transferred to the human VEGF₁₆₅ immobilized plate and incubated for 90 min. […] Optical density at 450 nm (OD 450 nm) was measured using a Sunrise microplate reader (Tecan). Data were analyzed as above, and EC₅₀ values were calculated from the dose-response curves of the scFvs.
Target sequence in this assay (P15692 other isoform, or with tags, fused parts or gaps): as the sequence (P15692 other isoform, or with tags, fused parts or gaps) above

Kd [1]: 0.0219 nM | Kd [2]: 0.0273 nM | Rel. activity in HUVEC assay (EC50Luc[nM]/EC50test[nM]) hVEGF [3]: 1.6 and 1.4 | Kd [4]: 0.748 nM | koff [4]: 0.000641 s⁻¹ | kon [4]: 858000 M⁻¹ s⁻¹ | Kd [5]: 0.567 nM | koff [5]: 0.000657 s⁻¹ | kon [5]: 1.14e+06 M⁻¹ s⁻¹ | EC50, HUVEC proliferation induced by rat VEGF164 [6]: 0.0697 nM | EC50, HUVEC proliferation induced by mouse VEGF164 [7]: 0.0631 nM | Kd [8]: 0.576 nM | EC50, HUVEC proliferation induced by hVEGF165 [9]: 0.0552 nM | potency in HUVEC assay relative to Lucentis [9]: ~1.6 fold | Kd [10]: 0.625 nM | koff [10]: 0.000504 s⁻¹ | kon [10]: 806000 M⁻¹ s⁻¹ | relative value KdhVEGF165/KdmVEGF164 (rat block) [11]: 0.8 | relative value kdhVEGF165/kdmVEGF164 (rat block) [11]: 0.8 | relative value KdhVEGF165/KdmVEGF164 [12]: 1.1 | relative value kdhVEGF165/kdmVEGF164 [12]: 0.8
B1: 578minmax (scFv)
scFv: EIVMTQSPSTLSASVGDRVIITCQASEIIHSWLAWYQQKPGKAPKLLIYLASTLASGVPSRFSGSGSGAEFTLTISSLQPDDFATYYCQNVYLASTNGANFGQGTKLTVLGGGGGSGGGGSGGGGSGGGGSEVQLVESGGGLVQPGGSLRLSCTASGFSLTDYYYMTWVRQAPGKGLEWVGFIDPDDDPYYATWAKGRFTISRDTSKNTVYLQMNSLRAEDTAVYYCAGGDHNSGWGLDIWGQGTLVTVSS
notes: also called ESBA903; 903

Rel. activity in HUVEC assay (EC50Luc[nM]/EC50test[nM]) hVEGF [3]: 0.1 | koff [4]: 0.0182 s⁻¹ | kon [4]: 1.7e+06 M⁻¹ s⁻¹ | koff [5]: 0.0151 s⁻¹ | kon [5]: 1.4e+06 M⁻¹ s⁻¹ | binding result (recombinant human PLGF): no binding | koff [13]: 0.000202 s⁻¹ | kon [13]: 1.11e+06 M⁻¹ s⁻¹ | Rel. activity in HUVEC assay (EC50Luc[nM]/EC50test[nM]) [14]: 0.1 | koff [15]: 0.0104 s⁻¹ | kon [15]: 915000 M⁻¹ s⁻¹ | koff [16]: 0.0088 s⁻¹ | kon [16]: 961000 M⁻¹ s⁻¹ | koff [17]: 0.0103 s⁻¹ | kon [17]: 1.14e+06 M⁻¹ s⁻¹ | EC50 in HUVEC assay (FIG. 8d) [9]: 1.53 nM | koff [10]: 0.0103 s⁻¹ | kon [10]: 1.14e+06 M⁻¹ s⁻¹ | koff [18]: 0.0103 s⁻¹ | kon [18]: 1.14e+06 M⁻¹ s⁻¹ | Rel. activity hVEGR1 comp. ELISA (EC50Luc[nM]/EC50test[nM]) [19]: 4.8
B2: 578-min (scFv)
scFv: B1 scFv with T154A, G181S, T205N, V210L, G229K
notes: also called EP578 min; Protein Nr; 820

Rel. activity in HUVEC assay (EC50Luc[nM]/EC50test[nM]) hVEGF [3]: 0.0011 | koff [4]: 0.00112 s⁻¹ | kon [4]: 550000 M⁻¹ s⁻¹ | koff [5]: 0.00103 s⁻¹ | kon [5]: 625000 M⁻¹ s⁻¹ | binding result (recombinant human PLGF): no binding | koff [13]: 0.000885 s⁻¹ | kon [13]: 675000 M⁻¹ s⁻¹ | Rel. activity in HUVEC assay (EC50Luc[nM]/EC50test[nM]) [14]: 0.0011 | koff [15]: 0.000898 s⁻¹ | kon [15]: 619000 M⁻¹ s⁻¹ | koff [16]: 0.000963 s⁻¹ | kon [16]: 778000 M⁻¹ s⁻¹ | koff [17]: 0.00128 s⁻¹ | kon [17]: 505000 M⁻¹ s⁻¹ | koff [10]: 0.00128 s⁻¹ | kon [10]: 505000 M⁻¹ s⁻¹ | koff [18]: 0.00128 s⁻¹ | kon [18]: 505000 M⁻¹ s⁻¹ | Rel. activity hVEGR1 comp. ELISA (EC50Luc[nM]/EC50test[nM]) [19]: 0.7
B3: 511-min (scFv)
scFv: EIVMTQSPSTLSASVGDRVIITCQASQSINIWCSWYQQKPGKAPKLLIYRASTLASGVPSRFSGSGSGAEFTLTISSLQPDDFATYYCQANYAYSAGYGAAFGQGTKLTVLGGGGGSGGGGSGGGGSGGGGSEVQLVESGGGLVQPGGSLRLSCAASGFSLNTYYMNWVRQAPGKGLEWVSIIAPDDTTYYASWAKSRFTISRDNSKNTLYLQMNSLRAEDTAVYYCAKSGDTTAWGADIWGQGTLVTVSS
notes: VL and VH tied by name; also called Protein Nr
